According to patent US20140206609A1 (Sanofi, published 2014):
Read-outs that look alike come from different tables or passages of the source. *1 amine or outer side, *2 acyl side, *3 side chain or, on linkers, in order; H or OH if unused. Where no end group is shown, it is not given here. Side-chain parts run from the residue outwards. [ ]: non-standard residue; d: D form. The star is where a group is joined. γGlu = O=C(O)[C@H](CCC(=O)[*:2])N[*:1]; Palmitoyl = CCCCCCCCCCCCCCCC(=O)*; Nle = CCCC[C@H](N)C(=O)O; Aib = CC(C)(N)C(=O)O

Tests used:
Assay in all cases: cell-based or functional assay
[1] = target: T1, human GIP receptor (human) (UniProt P48546)
T1 sequence (looked up): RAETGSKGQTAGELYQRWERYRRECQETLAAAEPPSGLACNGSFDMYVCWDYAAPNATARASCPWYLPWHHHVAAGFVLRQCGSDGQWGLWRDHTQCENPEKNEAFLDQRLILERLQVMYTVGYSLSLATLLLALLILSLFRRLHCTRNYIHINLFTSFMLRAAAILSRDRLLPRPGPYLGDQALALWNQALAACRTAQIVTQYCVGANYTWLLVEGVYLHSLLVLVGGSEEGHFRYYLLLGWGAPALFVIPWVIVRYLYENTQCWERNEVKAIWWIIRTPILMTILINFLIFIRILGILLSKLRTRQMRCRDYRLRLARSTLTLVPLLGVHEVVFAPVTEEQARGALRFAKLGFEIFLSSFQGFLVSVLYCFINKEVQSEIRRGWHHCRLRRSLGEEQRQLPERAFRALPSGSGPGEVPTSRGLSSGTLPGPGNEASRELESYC

[2] = target: human GLP-1 receptor (human) (UniProt P43220)
human GLP-1 receptor (human), sequence (P43220 24-463): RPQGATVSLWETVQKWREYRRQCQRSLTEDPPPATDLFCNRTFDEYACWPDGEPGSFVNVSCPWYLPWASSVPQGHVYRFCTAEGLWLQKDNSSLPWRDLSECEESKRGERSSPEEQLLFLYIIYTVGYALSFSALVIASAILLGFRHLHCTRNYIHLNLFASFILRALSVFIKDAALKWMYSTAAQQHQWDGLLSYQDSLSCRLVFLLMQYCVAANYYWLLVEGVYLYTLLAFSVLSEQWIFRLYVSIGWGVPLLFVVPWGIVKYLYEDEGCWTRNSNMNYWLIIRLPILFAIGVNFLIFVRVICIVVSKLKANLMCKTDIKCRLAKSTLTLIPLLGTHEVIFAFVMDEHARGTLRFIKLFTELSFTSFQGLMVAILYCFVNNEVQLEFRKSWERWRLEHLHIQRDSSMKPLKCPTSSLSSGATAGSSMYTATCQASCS

human GLP-1 receptor [3] = target: T2, human GLP-1 receptor (human, UniProt P43220 24-463)
Target sequence in this assay (P43220 24-463): as above

human GIP receptor [4] = target: T3, human GIP receptor (human, UniProt P48546 22-466)
T3 sequence (looked up): T1 sequence (looked up)

human GLP-1 receptor [5] = target: T2, human GLP-1 receptor; remark: listed apart in the source
human glucagon receptor = human glucagon receptor (human, UniProt P47871 26-477)
human glucagon receptor, sequence (P47871 26-477): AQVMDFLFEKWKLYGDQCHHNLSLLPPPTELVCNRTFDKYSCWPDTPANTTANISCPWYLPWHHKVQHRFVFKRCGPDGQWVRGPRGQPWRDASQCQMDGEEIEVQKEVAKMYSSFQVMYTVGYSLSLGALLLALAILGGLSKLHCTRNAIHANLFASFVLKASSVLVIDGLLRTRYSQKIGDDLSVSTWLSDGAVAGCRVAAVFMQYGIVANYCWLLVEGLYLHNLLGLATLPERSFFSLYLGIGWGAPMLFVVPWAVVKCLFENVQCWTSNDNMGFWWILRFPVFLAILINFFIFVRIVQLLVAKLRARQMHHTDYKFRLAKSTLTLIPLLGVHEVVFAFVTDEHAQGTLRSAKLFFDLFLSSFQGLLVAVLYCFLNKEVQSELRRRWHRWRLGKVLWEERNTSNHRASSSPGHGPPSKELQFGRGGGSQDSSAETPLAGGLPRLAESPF

human GIP receptor [6] = target: T3, human GIP receptor; remark: listed apart in the source
human GLP-1 receptor [7] = target: T2, human GLP-1 receptor; remark: listed apart in the source
human GIP receptor [8] = target: T3, human GIP receptor; remark: listed apart in the source

Tyr(1)Ile(12)-exendin-4 (peptide)
EC50 hGIP R [pM] [1]: 93.9 pM | EC50 hGLP-1 R [pM] [2]: 1.3 pM

Tyr(1)Ile(12)-GLP1 (peptide)
EC50 hGLP-1 R [pM] (human GLP-1 receptor [3]): 5 pM | EC50 hGIP R [pM] (human GIP receptor [4]): 3660 pM

natural GIP (glucose-dependent insulinotropic polypeptide) (from UniProt P09681 52-93) (ligand)
EC50 [1]: 0.4 pM

B1: SEQ ID NO: 9 (peptide)
peptide: Y[Aib]EGTFTSDLSIQK([γGlu-Palmitoyl])EKRAA[Aib]EFIEWLKNTGPSSGAPPPS-NH2
modifications: N-terminus assumed
SMILES: CCCCCCCCCCCCCCCC(=O)N[C@@H](CCC(=O)NCCCC[C@H](NC(=O)[C@H](CCC(N)=O)NC(=O)[C@@H](NC(=O)[C@H](CO)NC(=O)[C@H](CC(C)C)NC(=O)[C@H](CC(=O)O)NC(=O)[C@H](CO)NC(=O)[C@@H](NC(=O)[C@H](Cc1ccccc1)NC(=O)[C@@H](NC(=O)CNC(=O)[C@H](CCC(=O)O)NC(=O)C(C)(C)NC(=O)[C@@H](N)Cc1ccc(O)cc1)[C@@H](C)O)[C@@H](C)O)[C@@H](C)CC)C(=O)N[C@@H](CCC(=O)O)C(=O)N[C@@H](CCCCN)C(=O)N[C@@H](CCCNC(=N)N)C(=O)N[C@@H](C)C(=O)N[C@@H](C)C(=O)NC(C)(C)C(=O)N[C@@H](CCC(=O)O)C(=O)N[C@@H](Cc1ccccc1)C(=O)N[C@H](C(=O)N[C@@H](CCC(=O)O)C(=O)N[C@@H](Cc1c[nH]c2ccccc12)C(=O)N[C@@H](CC(C)C)C(=O)N[C@@H](CCCCN)C(=O)N[C@@H](CC(N)=O)C(=O)N[C@H](C(=O)NCC(=O)N1CCC[C@H]1C(=O)N[C@@H](CO)C(=O)N[C@@H](CO)C(=O)NCC(=O)N[C@@H](C)C(=O)N1CCC[C@H]1C(=O)N1CCC[C@H]1C(=O)N1CCC[C@H]1C(=O)N[C@@H](CO)C(N)=O)[C@@H](C)O)[C@@H](C)CC)C(=O)O
EC50 hGLP-1 R [pM] (human GLP-1 receptor [5]): 3.6 pM | EC50 hGLUC R [pM] (human glucagon receptor): 7710 pM | EC50 hGIP R [pM] (human GIP receptor [6]): 5.7 pM | EC50 hGLP-1 R [pM] (human GLP-1 receptor [7]): 3.6 pM | EC50 hGIP R [pM] (human GIP receptor [8]): 5.7 pM

B2: SEQ ID NO: 32 (peptide)
peptide: Y[Aib]QGTFTSDLSIQK([γGlu-Palmitoyl])ESRAAQDFIEWLKAGGPSSGAPPPS-NH2
modifications: N-terminus assumed
SMILES: CCCCCCCCCCCCCCCC(=O)N[C@@H](CCC(=O)NCCCC[C@H](NC(=O)[C@H](CCC(N)=O)NC(=O)[C@@H](NC(=O)[C@H](CO)NC(=O)[C@H](CC(C)C)NC(=O)[C@H](CC(=O)O)NC(=O)[C@H](CO)NC(=O)[C@@H](NC(=O)[C@H](Cc1ccccc1)NC(=O)[C@@H](NC(=O)CNC(=O)[C@H](CCC(N)=O)NC(=O)C(C)(C)NC(=O)[C@@H](N)Cc1ccc(O)cc1)[C@@H](C)O)[C@@H](C)O)[C@@H](C)CC)C(=O)N[C@@H](CCC(=O)O)C(=O)N[C@@H](CO)C(=O)N[C@@H](CCCNC(=N)N)C(=O)N[C@@H](C)C(=O)N[C@@H](C)C(=O)N[C@@H](CCC(N)=O)C(=O)N[C@@H](CC(=O)O)C(=O)N[C@@H](Cc1ccccc1)C(=O)N[C@H](C(=O)N[C@@H](CCC(=O)O)C(=O)N[C@@H](Cc1c[nH]c2ccccc12)C(=O)N[C@@H](CC(C)C)C(=O)N[C@@H](CCCCN)C(=O)N[C@@H](C)C(=O)NCC(=O)NCC(=O)N1CCC[C@H]1C(=O)N[C@@H](CO)C(=O)N[C@@H](CO)C(=O)NCC(=O)N[C@@H](C)C(=O)N1CCC[C@H]1C(=O)N1CCC[C@H]1C(=O)N1CCC[C@H]1C(=O)N[C@@H](CO)C(N)=O)[C@@H](C)CC)C(=O)O
EC50 hGLP-1 R [pM] (human GLP-1 receptor [5]): 8.4 pM | EC50 hGLUC R [pM] (human glucagon receptor): 82.6 pM | EC50 hGIP R [pM] (human GIP receptor [6]): 7.1 pM | EC50 hGLP-1 R [pM] (human GLP-1 receptor [7]): 8.4 pM | EC50 hGIP R [pM] (human GIP receptor [8]): 7.1 pM

B3: SEQ ID NO: 40 (peptide)
peptide: Y[Aib]QGTFTSDLSIQLESRAAQDFIEWLKAGGPSSGAPPPS-NH2
modifications: N-terminus assumed
SMILES: CC[C@H](C)[C@H](NC(=O)[C@H](Cc1ccccc1)NC(=O)[C@H](CC(=O)O)NC(=O)[C@H](CCC(N)=O)NC(=O)[C@H](C)NC(=O)[C@H](C)NC(=O)[C@H](CCCNC(=N)N)NC(=O)[C@H](CO)NC(=O)[C@H](CCC(=O)O)NC(=O)[C@H](CC(C)C)NC(=O)[C@H](CCC(N)=O)NC(=O)[C@@H](NC(=O)[C@H](CO)NC(=O)[C@H](CC(C)C)NC(=O)[C@H](CC(=O)O)NC(=O)[C@H](CO)NC(=O)[C@@H](NC(=O)[C@H](Cc1ccccc1)NC(=O)[C@@H](NC(=O)CNC(=O)[C@H](CCC(N)=O)NC(=O)C(C)(C)NC(=O)[C@@H](N)Cc1ccc(O)cc1)[C@@H](C)O)[C@@H](C)O)[C@@H](C)CC)C(=O)N[C@@H](CCC(=O)O)C(=O)N[C@@H](Cc1c[nH]c2ccccc12)C(=O)N[C@@H](CC(C)C)C(=O)N[C@@H](CCCCN)C(=O)N[C@@H](C)C(=O)NCC(=O)NCC(=O)N1CCC[C@H]1C(=O)N[C@@H](CO)C(=O)N[C@@H](CO)C(=O)NCC(=O)N[C@@H](C)C(=O)N1CCC[C@H]1C(=O)N1CCC[C@H]1C(=O)N1CCC[C@H]1C(=O)N[C@@H](CO)C(N)=O
EC50 hGLP-1 R [pM] (human GLP-1 receptor [7]): 3.2 pM | EC50 hGIP R [pM] (human GIP receptor [8]): 858 pM

B4: SEQ ID NO: 41 (peptide)
peptide: Y[Aib]EGTFTSDLSIQ[Nle]EKRAA[Aib]EFIEWLKNTGPSSGAPPPS-NH2
modifications: N-terminus assumed
SMILES: CCCC[C@H](NC(=O)[C@H](CCC(N)=O)NC(=O)[C@@H](NC(=O)[C@H](CO)NC(=O)[C@H](CC(C)C)NC(=O)[C@H](CC(=O)O)NC(=O)[C@H](CO)NC(=O)[C@@H](NC(=O)[C@H](Cc1ccccc1)NC(=O)[C@@H](NC(=O)CNC(=O)[C@H](CCC(=O)O)NC(=O)C(C)(C)NC(=O)[C@@H](N)Cc1ccc(O)cc1)[C@@H](C)O)[C@@H](C)O)[C@@H](C)CC)C(=O)N[C@@H](CCC(=O)O)C(=O)N[C@@H](CCCCN)C(=O)N[C@@H](CCCNC(=N)N)C(=O)N[C@@H](C)C(=O)N[C@@H](C)C(=O)NC(C)(C)C(=O)N[C@@H](CCC(=O)O)C(=O)N[C@@H](Cc1ccccc1)C(=O)N[C@H](C(=O)N[C@@H](CCC(=O)O)C(=O)N[C@@H](Cc1c[nH]c2ccccc12)C(=O)N[C@@H](CC(C)C)C(=O)N[C@@H](CCCCN)C(=O)N[C@@H](CC(N)=O)C(=O)N[C@H](C(=O)NCC(=O)N1CCC[C@H]1C(=O)N[C@@H](CO)C(=O)N[C@@H](CO)C(=O)NCC(=O)N[C@@H](C)C(=O)N1CCC[C@H]1C(=O)N1CCC[C@H]1C(=O)N1CCC[C@H]1C(=O)N[C@@H](CO)C(N)=O)[C@@H](C)O)[C@@H](C)CC
EC50 hGLP-1 R [pM] (human GLP-1 receptor [7]): 11.2 pM | EC50 hGIP R [pM] (human GIP receptor [8]): 449 pM
